What was measured:
[1] = target: NiV-BD G (Nipah virus, Bangladesh strain (NiV-BD)); assay: cell-based or functional assay
NiV-MY G [2] = target: T1, NiV-MY G (Nipah virus, Malaysia strain (NiV-MY), UniProt Q9IH62 71-602); assay: cell-based or functional assay
T1 sequence: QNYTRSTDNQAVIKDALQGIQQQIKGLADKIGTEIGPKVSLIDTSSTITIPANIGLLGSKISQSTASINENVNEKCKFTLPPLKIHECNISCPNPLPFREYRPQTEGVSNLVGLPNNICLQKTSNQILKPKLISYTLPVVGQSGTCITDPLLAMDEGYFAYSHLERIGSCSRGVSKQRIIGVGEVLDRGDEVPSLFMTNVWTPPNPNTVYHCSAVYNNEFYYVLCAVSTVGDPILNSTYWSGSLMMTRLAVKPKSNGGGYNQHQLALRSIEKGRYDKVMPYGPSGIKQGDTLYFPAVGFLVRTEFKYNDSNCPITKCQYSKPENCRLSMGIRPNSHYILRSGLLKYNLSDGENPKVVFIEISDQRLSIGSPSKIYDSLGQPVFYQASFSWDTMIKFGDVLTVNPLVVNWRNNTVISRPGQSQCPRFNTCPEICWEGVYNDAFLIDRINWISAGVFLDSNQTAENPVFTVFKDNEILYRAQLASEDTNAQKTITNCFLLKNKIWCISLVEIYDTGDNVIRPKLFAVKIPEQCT

[3] = target: NiV-BD G (Nipah virus, Bangladesh strain (NiV-BD)); assay: ELISA, G protein coated at 1 µg/mL, antibody titrated 1:3 from 20 µg/mL
NiV-MY G [4] = target: T1, NiV-MY G; assay: as above

B1: 1D11 (antibody, V domains shown)
VH: EVQLVESGGGLVQPGGSLRLSCAASGFTFSSYDMSWVRQAPGKGLEWVSSISSVTSYISYADSVKGRFTISRDNAKNSLSLQMNSLKTEDTAVYYCTTENWNFDFWGQGVLVTVSS
VL: DVVMTQSPLSLATTPGQPASISCRSSQSLVHSNGNTYLSWYQQKPGQPPRLLIYEVSNRDSGVPDRFSGSGAGTDFTLKISRVEAEDVGVYYCGQGTHWPPFTFGPGTKLDIK
notes: also called antibody 1D11; monoclonal antibody 1D11; copies: 2 + 2
[1]
  neutralization of HIV-NiV-BD pseudovirus (luciferase, 293T cells): 100%
NiV-MY G [2]
  half inhibiting concentration (IC50), NiV-MY pseudovirus neutralization: 57.9 ng/mL
[3]
  EC50: 0.00991 µg/mL
NiV-MY G [4]
  EC50: 0.0202 µg/mL

B2: 1F9 (antibody, V domains shown)
VH: QVQLQESGPGLVKPSETLSLSCAVSGGSFSDYWWGWIRQSPGKGLEWIGSIYGSSGRTAYSPSLKSRATISRDTSKNQLFLRLTSVTAADTGVYYCTNERFYGDSNRFDVWGPGVLVTVSS
VL: QPVLTQPTSLSASPGASARLTCTLSSGISVGNYRIFWYQQKPGSPPRYLLNYHTDSDKHQGSGVPSRFSGSKDASANAGILLISGLQSEDEADYYCMIWHNNVDVFGGGTKLTVLR
[1]
  neutralization of HIV-NiV-BD pseudovirus (luciferase, 293T cells): 100%
[3]
  EC50: 0.015 µg/mL

B3: 2B6 (antibody, V domains shown)
VH: QVQLVQSGAEVKKPGASVKLSCKASGYTFTSFYINWVRQAPGQVLEWMGWINPSNGDTGYAQKFQGRVTMSRDTSTSTAYMELSSLRSEDTAVYYCTRETVGSGTFDCWGQGVLVTVSS
VL: DIVMTQTPLSLSVTLGEPASISCRSSQSLVYSAGKTYLDWYLQKPGQSPQLLIYLVSKRASGVPDKFSGSGSGTDFTLKISRVEAEDVGVYYCMQALRSPLTFGGGTKVELK
notes: also called antibody 2B6; monoclonal antibody 2B6; copies: 2 + 2
[1]
  neutralization of HIV-NiV-BD pseudovirus (luciferase, 293T cells): 100%
NiV-MY G [2]
  half inhibiting concentration (IC50), NiV-MY pseudovirus neutralization: 28.3 ng/mL
[3]
  EC50: 0.0054 µg/mL
NiV-MY G [4]
  EC50: 0.00956 µg/mL

B4: 1A9 (antibody, V domains shown)
VH: VQLQESGPGLVKPSETLSLTCAVSGDSISTGYDWTWIRQPPGKGLEWIGYIGGSSGNTNYNPSLKSRVTISKDTSKNQFSLKLSSVTAADTAVYYCARDGTRVYYYGLDSWGQGVVVTVSS
VL: ETVVTQEPSLSVSPGGTVTLTCGLSSGSVSTSNYPSWFQQTPGQAPRMLIYSTNIRPSGVPNRFSGSILGNKAALTITGAQADDESDYYCFFSMVSGTSVFGGGTRLTVLR
[3]
  EC50: 0.0183 µg/mL
